B1: ReAV R47A mutant (Rhizobium etli Class 3, type V L-asparaginase) (enzyme)
chain: MTPSEDFVVTDRGGIVENSHRVHAAVVDAKGRLLYALGNPTRMTLAASAAKPAQALAILETEGVAGYGFDDADIALMCASHSSEDRHIARTRAMLSKIKAEEADLRCGGHPSLSEMVNRSWIKQDFIPTAVCSNCSGKHVGMLAGARAIGAGTDGYHLPDHPMQGRVKRTVAELCDLDAGDVEWGTDGCNLPTPAFPLDRLGRIYAKLASAADGSDAGEGQSTRCAALAHIFRAMARHPEMVAGEGRYCTMLMRAFDGALVGKLGADASYAIGVRASDATRQLGTDGALGISVKIEDGNLEMLYAVVTELLERLGIGSPDVRSQLASFHHPQRVNTMGVTTGGVSFPFKLRGSKSNVDDPRLAAVAR
notes: ReAV, inducible thermolabile type V L-asparaginase of Rhizobium etli; Homodimer; source: E. coli BL21-Gold (DE3), purified (HisTrap, TEV digestion, second HisTrap, Superdex 200)
B2: ReAV K51A mutant (in fact the double mutant K51A/H238Y; Rhizobium etli Class 3, type V L-asparaginase) (enzyme)
chain: MTPSEDFVVTDRGGIVENSHRVHAAVVDAKGRLLYALGNPTRMTLARSAAAPAQALAILETEGVAGYGFDDADIALMCASHSSEDRHIARTRAMLSKIKAEEADLRCGGHPSLSEMVNRSWIKQDFIPTAVCSNCSGKHVGMLAGARAIGAGTDGYHLPDHPMQGRVKRTVAELCDLDAGDVEWGTDGCNLPTPAFPLDRLGRIYAKLASAADGSDAGEGQSTRCAALAHIFRAMARYPEMVAGEGRYCTMLMRAFDGALVGKLGADASYAIGVRASDATRQLGTDGALGISVKIEDGNLEMLYAVVTELLERLGIGSPDVRSQLASFHHPQRVNTMGVTTGGVSFPFKLRGSKSNVDDPRLAAVAR
notes: ReAV, inducible thermolabile type V L-asparaginase of Rhizobium etli; the crystallised protein carries the unintended second mutation H238Y; Homodimer; Zn2+ at occupancy 0.5 in the crystal; source: E. coli BL21-Gold (DE3), purified (HisTrap, TEV digestion, second HisTrap, Superdex 200)
B3: ReAV S80A mutant (Rhizobium etli Class 3, type V L-asparaginase) (enzyme)
chain: MTPSEDFVVTDRGGIVENSHRVHAAVVDAKGRLLYALGNPTRMTLARSAAKPAQALAILETEGVAGYGFDDADIALMCAAHSSEDRHIARTRAMLSKIKAEEADLRCGGHPSLSEMVNRSWIKQDFIPTAVCSNCSGKHVGMLAGARAIGAGTDGYHLPDHPMQGRVKRTVAELCDLDAGDVEWGTDGCNLPTPAFPLDRLGRIYAKLASAADGSDAGEGQSTRCAALAHIFRAMARHPEMVAGEGRYCTMLMRAFDGALVGKLGADASYAIGVRASDATRQLGTDGALGISVKIEDGNLEMLYAVVTELLERLGIGSPDVRSQLASFHHPQRVNTMGVTTGGVSFPFKLRGSKSNVDDPRLAAVAR
modifications: Cys249 most likely oxidized, modeled as cysteinesulfinic acid
notes: ReAV, inducible thermolabile type V L-asparaginase of Rhizobium etli; Homodimer; source: E. coli BL21-Gold (DE3), purified (HisTrap, TEV digestion, second HisTrap, Superdex 200); mostly in inclusion bodies, about 10 mg/L recovered from the cell lysate
B4: ReAV S48A mutant (Rhizobium etli Class 3, type V L-asparaginase) (enzyme)
chain: MTPSEDFVVTDRGGIVENSHRVHAAVVDAKGRLLYALGNPTRMTLARAAAKPAQALAILETEGVAGYGFDDADIALMCASHSSEDRHIARTRAMLSKIKAEEADLRCGGHPSLSEMVNRSWIKQDFIPTAVCSNCSGKHVGMLAGARAIGAGTDGYHLPDHPMQGRVKRTVAELCDLDAGDVEWGTDGCNLPTPAFPLDRLGRIYAKLASAADGSDAGEGQSTRCAALAHIFRAMARHPEMVAGEGRYCTMLMRAFDGALVGKLGADASYAIGVRASDATRQLGTDGALGISVKIEDGNLEMLYAVVTELLERLGIGSPDVRSQLASFHHPQRVNTMGVTTGGVSFPFKLRGSKSNVDDPRLAAVAR
notes: ReAV, inducible thermolabile type V L-asparaginase of Rhizobium etli; Homodimer; Zn2+ at occupancy 0.7 in the crystal; source: E. coli BL21-Gold (DE3), purified (HisTrap, TEV digestion, second HisTrap, Superdex 200)
B5: ReAV K263A mutant (Rhizobium etli Class 3, type V L-asparaginase) (enzyme)
chain: MTPSEDFVVTDRGGIVENSHRVHAAVVDAKGRLLYALGNPTRMTLARSAAKPAQALAILETEGVAGYGFDDADIALMCASHSSEDRHIARTRAMLSKIKAEEADLRCGGHPSLSEMVNRSWIKQDFIPTAVCSNCSGKHVGMLAGARAIGAGTDGYHLPDHPMQGRVKRTVAELCDLDAGDVEWGTDGCNLPTPAFPLDRLGRIYAKLASAADGSDAGEGQSTRCAALAHIFRAMARHPEMVAGEGRYCTMLMRAFDGALVGALGADASYAIGVRASDATRQLGTDGALGISVKIEDGNLEMLYAVVTELLERLGIGSPDVRSQLASFHHPQRVNTMGVTTGGVSFPFKLRGSKSNVDDPRLAAVAR
modifications: Cys249 chemically modified, modeled as S-hydroxycysteine
notes: ReAV, inducible thermolabile type V L-asparaginase of Rhizobium etli; Homodimer; Zn2+ at occupancy 0.8 in the crystal; source: E. coli BL21-Gold (DE3), purified (HisTrap, TEV digestion, second HisTrap, Superdex 200)

This data set deals with the molecule itself. As to the kind of experiment: crystal structure; hanging-drop vapor diffusion at 19 °C, protein 15-21 mg/mL with 0.5-1% v/v DDM; data at 100 K; molecular replacement with WT ReAV PDB 7os5; dimers in the asymmetric unit.
For the protein B1, the binding result is “binds”.

For the protein B2, the binding result is recorded as “binds”.

Turning to B3, the binding result is listed as “binds”.

On to B4, for which the binding result is “binds”.

B5: the binding result is on record as “binds”.

The values above are taken from publication PMC12292245, “Probing the Active Site of Class 3 L-Asparaginase by Mutagenesis: Mutations of the Ser-Lys Tandems of ReAV” (Biomolecules, 2025).
